Source: IntAct's records for PubMed 17318191

B1: Catenin beta-1 (Homo sapiens), P35222 (parent)
chain: MATQADLMELDMAMEPDRKAAVSHWQQQSYLDSGIHSGATTTAPSLSGKGNPEEEDVDTSQVLYEWEQGFSQSFTQEQVADIDGQYAMTRAQRVRAAMFPETLDEGMQIPSTQFDAAHPTNVQRLAEPSQMLKHAVVNLINYQDDAELATRAIPELTKLLNDEDQVVVNKAAVMVHQLSKKEASRHAIMRSPQMVSAIVRTMQNTNDVETARCTAGTLHNLSHHREGLLAIFKSGGIPALVKMLGSPVDSVLFYAITTLHNLLLHQEGAKMAVRLAGGLQKMVALLNKTNVKFLAITTDCLQILAYGNQESKLIILASGGPQALVNIMRTYTYEKLLWTTSRVLKVLSVCSSNKPAIVEAGGMQALGLHLTDPSQRLVQNCLWTLRNLSDAATKQEGMEGLLGTLVQLLGSDDINVVTCAAGILSNLTCNNYKNKMMVCQVGGIEALVRTVLRAGDREDITEPAICALRHLTSRHQEAEMAQNAVRLHYGLPVVVKLLHPPSHWPLIKATVGLIRNLALCPANHAPLREQGAIPRLVQLLVRAHQDTQRRTSMGGTQQQFVEGVRMEEIVEGCTGALHILARDVHNRIVIRGLNTIPLFVQLLYSPIENIQRVAAGVLCELAQDKEAAEAIEAEGATAPLTELLHSRNEGVATYAAAVLFRMSEDKPQDYKKRLSVELTSSLFRTEPMAWNETADLGLDIGAQGEPLGYRQDDPSYRSFHSGGYGQDALGMDPMMEHEMGGHHPGADYPVDGLPDLGHAQDLMDGLPPGDSNQLAWFDTDL

Variants of: B1
Details: with axin1_human AXIN1, O15169
Chain of axin1_human AXIN1, O15169 (O15169 whole entry): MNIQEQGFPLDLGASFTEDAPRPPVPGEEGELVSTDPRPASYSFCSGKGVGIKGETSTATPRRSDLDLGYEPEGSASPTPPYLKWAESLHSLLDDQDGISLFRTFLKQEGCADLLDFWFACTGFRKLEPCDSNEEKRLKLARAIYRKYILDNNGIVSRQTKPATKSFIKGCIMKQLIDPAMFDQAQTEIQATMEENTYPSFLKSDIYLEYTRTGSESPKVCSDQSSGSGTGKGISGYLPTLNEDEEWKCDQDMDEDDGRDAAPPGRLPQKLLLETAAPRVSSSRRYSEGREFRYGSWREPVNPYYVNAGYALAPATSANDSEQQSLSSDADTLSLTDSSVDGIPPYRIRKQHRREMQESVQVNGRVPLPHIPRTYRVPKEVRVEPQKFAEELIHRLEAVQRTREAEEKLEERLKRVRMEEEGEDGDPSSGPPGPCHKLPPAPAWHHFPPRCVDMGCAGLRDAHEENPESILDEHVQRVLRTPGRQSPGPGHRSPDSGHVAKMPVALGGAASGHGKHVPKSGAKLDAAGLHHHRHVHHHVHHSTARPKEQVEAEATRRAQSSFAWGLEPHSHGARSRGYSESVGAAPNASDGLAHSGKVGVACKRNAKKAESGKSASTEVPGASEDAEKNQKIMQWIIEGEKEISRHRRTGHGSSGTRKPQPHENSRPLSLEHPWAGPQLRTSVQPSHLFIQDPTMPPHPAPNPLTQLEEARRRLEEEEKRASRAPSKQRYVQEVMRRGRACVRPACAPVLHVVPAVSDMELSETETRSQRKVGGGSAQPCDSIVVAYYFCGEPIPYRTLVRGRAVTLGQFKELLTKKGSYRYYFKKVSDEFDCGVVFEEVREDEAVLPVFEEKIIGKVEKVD

Row | effect of a mutation on the interaction | Variant
1 | disrupting interaction | Y142F
2 | decreasing interaction | Y654F
